Measurements reported in the supplement of paper PMC7877785.
± gives the uncertainty stated by the source.

Experiment: self-splicing fitness, log relative to wild type (ln ratio); higher = more splicing; Tetrahymena group I intron in knt gene, E. coli kanamycin selection, DiMSum; sequences stand for … in CUCUCU…GGAGGGAAAAGUUAUCAGGCAUGCACCUGGUAGCUAGUCUUUAAACCAAUAGAUUGCAUCGGUUUAAAAGGCAAGACCGUCAAAUUGCGGGAAAGGGGUCAACAGCCGUUCAGUACCAAGUCUCAGGGGAAACUUUGAGAUGGCCUUGCAAAGGGUAUGGUAAUAAGCUGACGGACAUGGUCCUAACCACGCAGCCAAGUCCUAAGUCAACAGAUCUUCUGUUGAUAUGGAUGCAGUUCACAGACUAAAUGUCGGUCGGGGAAGAUGUAUUCUUCUCAUAAGAUAUAGUCGGACCUCUCCUUAAUGGGAGCUAGCGGAUGAAGUGAUGCAACACUGGAGCCGCUGGGAACUAAUUUGUAUGCGAAAGUAUAUUGAUUAGUUUUGGAGUACUCGUGGUCG
Outline: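 Fitness was computed with DiMSum as the error-weighted combination of replicate fold changes, kanamycin versus none, each normalised to wild type. The library randomised all eight intron nucleotides of the P1ex region, with the intron placed in the knt kanamycin-resistance gene on pET-22b(+) in E. coli BL21(DE3). Six replicate transformations were grown overnight at 37°C or 30°C on LB agar with or without 25 μg/mL kanamycin, plus 100 μg/mL carbenicillin, 50 μM IPTG and 0.2% rhamnose. Pooled colonies were amplicon-sequenced on an Illumina HiSeq 2500.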

Sequence	self-splicing fitness (ln) (30 °C)	self-splicing fitness (ln) (37 °C)
ACUGAGCAAUAUUACGCUGU	-3.42 ± 0.28	-1.7 ± 0.25
CCCAAGCAAUAUUACGAUUA	-2.97 ± 0.19	-2.9 ± 0.27
UGAGAGCAAUAUUACGAGAA	–	-1.39 ± 0.43
CCAGAGCAAUAUUACGAUGC	-3.48 ± 0.34	-2.78 ± 0.29
CGGCAGCAAUAUUACGCAGG	-2.02 ± 0.093	-1.33 ± 0.12
UGGUAGCAAUAUUACGGCUG	-1.99 ± 0.15	-0.886 ± 0.26
ACACAGCAAUAUUACGAAGG	-1.75 ± 0.061	-2.18 ± 0.11
UGUAAGCAAUAUUACGUUAG	-1.56 ± 0.14	-0.556 ± 0.17
GGCGAGCAAUAUUACGCUUA	-1.63 ± 0.15	-0.623 ± 0.15
UACUAGCAAUAUUACGAUAC	-2.63 ± 0.2	-1.91 ± 0.25
GCGCAGCAAUAUUACGCUUU	-1.39 ± 0.068	-0.38 ± 0.083
GCGAAGCAAUAUUACGCAGC	-3.31 ± 0.25	-2.06 ± 0.34
CGGGAGCAAUAUUACGGGCC	-1.81 ± 0.21	–
UACAAGCAAUAUUACGUGGC	-3 ± 0.14	-1.94 ± 0.22
UAAAAGCAAUAUUACGUCAG	-1.56 ± 0.074	-0.962 ± 0.097
UCUCAGCAAUAUUACGCGCC	-3.46 ± 0.25	-1.25 ± 0.19
CUUAAGCAAUAUUACGUCUC	-3.75 ± 0.33	-2.11 ± 0.27
AAAUAGCAAUAUUACGCCGU	-1.37 ± 0.21	0.028 ± 0.18
ACCGAGCAAUAUUACGACAG	-2.88 ± 0.17	-2.41 ± 0.39
CAUUAGCAAUAUUACGAGAU	-4.04 ± 0.46	-2.9 ± 0.24
CUAGAGCAAUAUUACGUUGC	-3.14 ± 0.32	-2.18 ± 0.44
GUAAAGCAAUAUUACGUAUC	-1.1 ± 0.07	-0.568 ± 0.098
CUGAAGCAAUAUUACGGCGA	-3.53 ± 0.27	–
UAACAGCAAUAUUACGUCGC	-3.59 ± 0.38	-2.73 ± 0.44
GUUUAGCAAUAUUACGUAUA	-2.12 ± 0.16	-1.41 ± 0.22

Sequence	self-splicing fitness (ln) (30 °C)	self-splicing fitness (ln) (37 °C)
CCUGAGCAAUAUUACGAGGA	-3.04 ± 0.45	-1.57 ± 0.18
CGCCAGCAAUAUUACGUGGA	-3.6 ± 0.2	-2 ± 0.15
UGGUAGCAAUAUUACGGGCC	-1.4 ± 0.23	–
AGCAAGCAAUAUUACGACCG	-0.988 ± 0.069	-0.512 ± 0.097
CGACAGCAAUAUUACGCGUC	-1.94 ± 0.14	-2.76 ± 0.27
UUUGAGCAAUAUUACGACUG	-2.39 ± 0.36	-1.03 ± 0.39
UCCCAGCAAUAUUACGCCAU	-3.09 ± 0.18	-2.83 ± 0.38
UUCUAGCAAUAUUACGCUUC	-2.8 ± 0.32	-1.96 ± 0.22
GAUUAGCAAUAUUACGCUGC	-3.07 ± 0.24	-2.25 ± 0.35
GCUUAGCAAUAUUACGGCUA	-0.299 ± 0.24	-1.61 ± 0.27
GGCCAGCAAUAUUACGAAUG	-4.74 ± 0.39	-2.17 ± 0.22
GCCUAGCAAUAUUACGUAUA	-3.04 ± 0.25	-1.63 ± 0.15
GUAUAGCAAUAUUACGCUUA	-2.39 ± 0.17	-1.23 ± 0.2
AUUUAGCAAUAUUACGCUGU	-1.33 ± 0.14	-1.01 ± 0.16
UCACAGCAAUAUUACGUGCG	-0.577 ± 0.056	-0.105 ± 0.069
CGAAAGCAAUAUUACGUAGG	-0.721 ± 0.067	-0.28 ± 0.096
CAUUAGCAAUAUUACGUGUA	-2.78 ± 0.18	-1.57 ± 0.11
AACGAGCAAUAUUACGUCCU	-1.04 ± 0.079	-0.143 ± 0.095
UCAUAGCAAUAUUACGGAAA	-2.84 ± 0.41	-2.4 ± 0.28
GAAGAGCAAUAUUACGAACC	-1.82 ± 0.25	-1.13 ± 0.29
CAUUAGCAAUAUUACGAUUA	-1.47 ± 0.085	-0.981 ± 0.081
AGCCAGCAAUAUUACGGCCA	-0.79 ± 0.089	-0.322 ± 0.11
UGAGAGCAAUAUUACGUCCG	-1.25 ± 0.23	-1.19 ± 0.42
CACCAGCAAUAUUACGUCUA	-2.84 ± 0.091	-1.79 ± 0.091
GCACAGCAAUAUUACGAGGC	-2.95 ± 0.12	-3.27 ± 0.2

Sequence	self-splicing fitness (ln) (30 °C)	self-splicing fitness (ln) (37 °C)
CGACAGCAAUAUUACGCUCA	0.00701 ± 0.094	-0.503 ± 0.1
AAUGAGCAAUAUUACGCAGC	-3.14 ± 0.44	-2.54 ± 0.36
UUUGAGCAAUAUUACGCUAU	-3.79 ± 0.42	-2.26 ± 0.23
UUUGAGCAAUAUUACGUGGA	-2.53 ± 0.21	-2.37 ± 0.22
CUUAAGCAAUAUUACGUCCU	-3.41 ± 0.21	-2.43 ± 0.19
AUCAAGCAAUAUUACGCUUU	-3.57 ± 0.15	-2.31 ± 0.12
GCAUAGCAAUAUUACGUUGU	-3.21 ± 0.17	-2.74 ± 0.19
CAGGAGCAAUAUUACGCGUU	-3.4 ± 0.17	-2.01 ± 0.19
ACCUAGCAAUAUUACGAUAC	-3.47 ± 0.25	-1.65 ± 0.2
UAUUAGCAAUAUUACGCACG	-0.859 ± 0.16	0.0642 ± 0.17
UAGUAGCAAUAUUACGUGUG	-2.02 ± 0.11	-1.23 ± 0.13
GCUAAGCAAUAUUACGACGC	-1.52 ± 0.16	-0.603 ± 0.18
UACCAGCAAUAUUACGCGCC	-1.46 ± 0.12	-1.1 ± 0.2
CUGCAGCAAUAUUACGGUCA	-3.07 ± 0.23	-2.18 ± 0.16
CCUUAGCAAUAUUACGAGUU	-3.96 ± 0.27	-2.56 ± 0.21
GACGAGCAAUAUUACGAUUA	-2.73 ± 0.23	-1.55 ± 0.22
UGGUAGCAAUAUUACGGAAU	–	-0.962 ± 0.23
UACAAGCAAUAUUACGAGUG	-1.35 ± 0.064	-0.768 ± 0.071
GCCUAGCAAUAUUACGGGGC	–	-2.81 ± 0.47
GGGUAGCAAUAUUACGGUAG	–	-1.91 ± 0.23
UUGGAGCAAUAUUACGAAUG	-3.5 ± 0.2	-2.31 ± 0.21
UAGGAGCAAUAUUACGACAU	-3.83 ± 0.039	-2.8 ± 0.047
GGAAAGCAAUAUUACGAUAU	-0.885 ± 0.076	-0.58 ± 0.1
AGACAGCAAUAUUACGAGCA	-1.46 ± 0.12	-0.648 ± 0.13
UUUCAGCAAUAUUACGCAAG	-1.27 ± 0.11	-0.106 ± 0.13

Sequence	self-splicing fitness (ln) (30 °C)	self-splicing fitness (ln) (37 °C)
CCUUAGCAAUAUUACGCUAC	-2.32 ± 0.27	-2.26 ± 0.27
AGUUAGCAAUAUUACGACAC	-0.65 ± 0.12	0.204 ± 0.2
CUAAAGCAAUAUUACGUGUA	-3.82 ± 0.19	-3.2 ± 0.23
AGGAAGCAAUAUUACGUGUC	-3.14 ± 0.27	-1.57 ± 0.19
UCCAAGCAAUAUUACGUUAG	-1.97 ± 0.13	-2.91 ± 0.28
GAUUAGCAAUAUUACGUAGG	-3.05 ± 0.16	-1.48 ± 0.15
CCACAGCAAUAUUACGUGCC	-1.6 ± 0.15	-2.36 ± 0.21
CAUCAGCAAUAUUACGCUGC	–	-2.61 ± 0.3
UUGAAGCAAUAUUACGCGGC	-1.63 ± 0.13	-0.671 ± 0.19
UCAUAGCAAUAUUACGGACG	-1.17 ± 0.15	-1.11 ± 0.17
UGUCAGCAAUAUUACGCGCG	-0.708 ± 0.14	0.0603 ± 0.13
UCGAAGCAAUAUUACGUUGU	-2.09 ± 0.19	-2.33 ± 0.2
GGGGAGCAAUAUUACGGAUU	-3.35 ± 0.28	-2.15 ± 0.23
GUAUAGCAAUAUUACGUAUA	-3.48 ± 0.41	-1.8 ± 0.25
UUCAAGCAAUAUUACGAGAC	-3.86 ± 0.23	-2.23 ± 0.19
ACGAAGCAAUAUUACGAUGG	-2.34 ± 0.13	-1.17 ± 0.12
CCGCAGCAAUAUUACGCGCA	-3.08 ± 0.27	-1.41 ± 0.16
AUCAAGCAAUAUUACGUCCG	-2.1 ± 0.14	-1.14 ± 0.16
CACUAGCAAUAUUACGUGAA	-3.83 ± 0.15	-3.05 ± 0.18
GAUCAGCAAUAUUACGCCGU	-0.933 ± 0.098	-0.477 ± 0.12
GAGAAGCAAUAUUACGUGCA	-0.762 ± 0.084	-0.666 ± 0.094
UGCAAGCAAUAUUACGGGGG	-3.16 ± 0.16	-2.04 ± 0.15
